From patent US20240002503A1 come the findings set out here.

The test addresses LILRB2 (human) (UniProt Q8N423). Description: flow cytometry HLA-G blocking; hIgG4 isotype control.
Sequence of UniProt Q8N423 (Q8N423 22-597): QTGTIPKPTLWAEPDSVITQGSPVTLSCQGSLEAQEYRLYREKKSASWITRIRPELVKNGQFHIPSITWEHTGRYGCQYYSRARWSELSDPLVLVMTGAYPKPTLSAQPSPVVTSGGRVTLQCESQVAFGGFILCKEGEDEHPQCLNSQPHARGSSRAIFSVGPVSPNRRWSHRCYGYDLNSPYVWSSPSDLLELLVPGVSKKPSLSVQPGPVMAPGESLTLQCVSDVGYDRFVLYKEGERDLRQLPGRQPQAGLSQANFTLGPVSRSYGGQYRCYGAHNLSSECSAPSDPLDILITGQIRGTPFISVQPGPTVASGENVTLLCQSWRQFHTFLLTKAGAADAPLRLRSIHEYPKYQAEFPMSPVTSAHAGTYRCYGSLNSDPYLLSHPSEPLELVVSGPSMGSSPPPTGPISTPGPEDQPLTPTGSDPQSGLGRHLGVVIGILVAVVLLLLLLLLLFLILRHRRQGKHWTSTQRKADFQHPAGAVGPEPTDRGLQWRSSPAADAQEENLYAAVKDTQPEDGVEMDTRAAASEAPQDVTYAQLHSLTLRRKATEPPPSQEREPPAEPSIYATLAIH

Usually IC50 stands for the midpoint of a concentration-inhibition curve. A low value points to greater potency in that assay. Isotype gave an IC50 of more than 66.7 nM.
